Source: patent US6465430
Bridges are numbered along the chain shown (N, C = ends). Where no end group is shown, it is not given here.

Target: soluble TPO-R (thrombopoietin receptor), immobilized (UniProt P40238 26-491)
Assay: competition ELISA vs MBP-TPO156 (+: IC50 <=200 µM)

Sequence of soluble TPO-R (thrombopoietin receptor), immobilized (P40238 26-491): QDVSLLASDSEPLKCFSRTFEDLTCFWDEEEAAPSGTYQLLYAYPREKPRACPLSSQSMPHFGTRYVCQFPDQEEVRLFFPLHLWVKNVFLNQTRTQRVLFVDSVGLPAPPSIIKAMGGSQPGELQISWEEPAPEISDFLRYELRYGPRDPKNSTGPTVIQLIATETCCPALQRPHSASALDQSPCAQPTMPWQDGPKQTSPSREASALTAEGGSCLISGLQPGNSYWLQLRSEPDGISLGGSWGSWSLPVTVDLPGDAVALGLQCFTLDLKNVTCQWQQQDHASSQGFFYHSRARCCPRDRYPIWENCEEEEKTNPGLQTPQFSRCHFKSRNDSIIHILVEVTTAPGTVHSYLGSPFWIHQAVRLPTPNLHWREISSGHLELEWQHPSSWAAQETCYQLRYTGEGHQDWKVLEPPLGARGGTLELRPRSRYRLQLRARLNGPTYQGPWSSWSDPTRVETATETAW

B1: cyclized SEQ ID NO:12 compound, I - A (peptide)
peptide: CADGPTLREWASFC-NH2
modifications: disulfide 1-14 (inferred)
**Q.** For B1, which IC50 is on record?
**A.** The IC50 was 0.5 to 200 µM.

B2: cyclized SEQ ID NO:12 compound, ADG - deletion (peptide)
peptide: CPTLREWISFC-NH2
modifications: disulfide 1-11 (inferred)
**Q.** With B2 as the binder, how does the IC50 read?
**A.** Its IC50 is 0.5 to 200 µM.
